Experiments:
recombinant HPPD = molecular target: T1, recombinant HPPD (Arabidopsis thaliana, UniProt P93836); test: pull down of recombinant HPPD with biotinylated aptamers immobilised on streptavidin beads (SDS-PAGE); format: binding; conditions: for pull down of HPPD (protein band on SDS-PAGE): 10 μg of HPPD, in the absence of protein extract
T1 construct: His-tag
T1 sequence (P93836 1-445): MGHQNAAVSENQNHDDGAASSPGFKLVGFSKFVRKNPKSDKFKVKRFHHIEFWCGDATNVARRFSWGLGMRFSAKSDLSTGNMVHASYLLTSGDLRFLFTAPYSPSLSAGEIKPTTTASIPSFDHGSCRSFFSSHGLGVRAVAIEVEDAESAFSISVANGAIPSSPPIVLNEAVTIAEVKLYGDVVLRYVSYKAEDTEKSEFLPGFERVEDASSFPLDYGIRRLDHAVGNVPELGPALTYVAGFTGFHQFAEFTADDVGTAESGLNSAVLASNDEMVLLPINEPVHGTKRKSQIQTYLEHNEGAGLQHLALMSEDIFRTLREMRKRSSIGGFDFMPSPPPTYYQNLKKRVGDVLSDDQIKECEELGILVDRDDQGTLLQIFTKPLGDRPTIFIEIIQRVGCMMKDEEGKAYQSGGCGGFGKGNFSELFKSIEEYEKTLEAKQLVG
Text: To confirm the concept that aptamers isolated using the competitive SELEX approach can be used to identify the interaction partner of interest, the two tightly binding aptamers S116C-C18 and S116D-C8, henceforth referred to as anti-HPPD aptamers, were biotinylated by in vitro transcription, using the appropriate DNA template and biotinylated ApG starter nucleotides (IBA, Göttingen) (Pitulle C. et al. (1992), Gene, 112(1):101-5; Gaur R. K. et al. (2004), Methods Mol. Biol. 252:9-17) and immobilised on paramagnetic streptavidin (SA) beads.
By contrast, the protein band assigned to HPPD was not visible when negative controls (beads only and N47α immobilised on beads) were used.

[1] = molecular target: T2, recombinant, His-tagged HPPD (p-hydroxyphenylpyruvate dioxygenase) (Arabidopsis thaliana, UniProt P93836); test: nitrocellulose filter retention assay, binding of radioactively labelled RNA to recombinant HPPD; conditions: monoclonal aptamer, recombinant HPPD at various concentrations; read-out: dissociation constant
T2 construct: His-tag
T2 sequence (P93836 1-445): T1 sequence (P93836 1-445)
Method: Recombinant, His-tagged HPPD was targeted as an interaction partner in two SELEX runs, referred to as S115A and S115E, which comprised 12 and 9 cycles, respectively. Briefly, the protein was biotinylated and exposed to the RNA library with a 47 nucleotide random region (N47α) in 20 mM Hepes (pH 7.4), 150 mM NaCl, 3 mM MgCl2, and 1 mg/ml BSA (in vitro selection 5115A) or 20 mM Hepes (pH 7.4), 150 mM NaCl, 3 mM MgCl2, 10% DMSO and 1 mg/ml BSA (in vitro selection S115B). The library N47α consists of a random region of 47 nucleotides which is flanked by fixed sequences at the 5′ and 3′ end that serve as primer annealing sites for the amplification of the selected aptamer sequences via reverse transcription and PCR. The 5′ region additionally contains the sequence of an T7-RNA polymerase promoter that enables the transcription of the PCR DNA template into RNA. The sense sequence of the PCR DNA template is “5″-[…]-N47-[…]-3′ (SEQ. ID No. 1). The T7-RNA polymerase promoter is underlined. The double stranded DNA template was used to transcribe the initial RNA library. The procedures to produce an RNA library and to perform a SELEX experiment are well known to a person skilled in the art and described in, e.g., Methods in Enzymology, Vol 267, Combinatorial Chemistry (1996), Abelson J. N. and Simon M. I., eds. Academic Press, San Diego. Subsequently, the complexes between target and RNA were captured on streptavidin-coated beads and unbound RNA was removed by washing with binding buffer. […] RNA bound to the target protein is retained within the complex on the filter and was quantified by a phosphoimager. Values were calculated as the percentage of total radiolabeled RNA in the reaction.
(§1) The dissociation constant (FIG. 4B) was determined to be 128±11 nM. consistent with strong binding to S115A-C1 to recombinant HPPD.
To determine the binding properties of individual aptamers isolated as part of the mixture of aptamers binding to HPPD in the previous example, aptamers were cloned into a vector, and 24 clones were sequenced. For each experiment out of S116B, S116C and S116D, one of the cloned aptamers subsequently identified as specific ligands to HPPD (termed S116C-C18 (5″-GGGAGAGGAGGGAGAUAGAUAUCAAUAUCGCCACGUUACGAGUACCAAGCUULJ […]-3″ (SEQ. ID. No. 3)), S116B-C4 (5′-[…] UGG-3′ (SEQ. ID. No. 4)) and S116D-C8 (5″-GGGAGAGGAGGG […]-3′) (SEQ. ID. No. 5)) was analysed with respect to the thermodynamics of the binding. […] The dissociation constants determined for S116B-C4, S116C-C18 and S116D-C8, were 740±39, 832±39 and 120±9 nM, respectively, consistent with the view that decreasing the concentration of the interaction partner to 2 pM (experiment S116D) actually yield the most tightly binding aptamer.

control proteins = test: nitrocellulose filter retention assay with control proteins as negative controls; format: binding; conditions: HPPD replaced by an equivalent concentration of control proteins
Method: Recombinant, His-tagged HPPD was targeted as an interaction partner in two SELEX runs, referred to as S115A and S115E, which comprised 12 and 9 cycles, respectively. Briefly, the protein was biotinylated and exposed to the RNA library with a 47 nucleotide random region (N47α) in 20 mM Hepes (pH 7.4), 150 mM NaCl, 3 mM MgCl2, and 1 mg/ml BSA (in vitro selection 5115A) or 20 mM Hepes (pH 7.4), 150 mM NaCl, 3 mM MgCl2, 10% DMSO and 1 mg/ml BSA (in vitro selection S115B). The library N47α consists of a random region of 47 nucleotides which is flanked by fixed sequences at the 5′ and 3′ end that serve as primer annealing sites for the amplification of the selected aptamer sequences via reverse transcription and PCR. The 5′ region additionally contains the sequence of an T7-RNA polymerase promoter that enables the transcription of the PCR DNA template into RNA. The sense sequence of the PCR DNA template is “5″-[…]-N47-[…]-3′ (SEQ. ID No. 1). The T7-RNA polymerase promoter is underlined. The double stranded DNA template was used to transcribe the initial RNA library. […] RNA bound to the target protein is retained within the complex on the filter and was quantified by a phosphoimager. Values were calculated as the percentage of total radiolabeled RNA in the reaction.
as §1

endogenous HPPD = molecular target: T3, endogenous HPPD (Arabidopsis thaliana, UniProt P93836); test: pull down of endogenous HPPD from protein extract with immobilised aptamer (SDS-PAGE); format: binding; conditions: protein extract only as the source of HPPD, no recombinant protein added
T3 construct: pull down endogenous HPPD in protein extract, i.e. no recombinant protein was added; from tissue; host or cells: protein extract from freeze-dried powder of Arabidopsis thaliana
T3 sequence (P93836 1-445): T1 sequence (P93836 1-445)
Method: For a realistic proof of principle scenario representing attempts to identify an unknown interaction partner, biotinylated aptamer S116D-C8 was immobilised and used in attempts to pull down endogenous HPPD in protein extract, i.e. no recombinant protein was added. Again, appropriate controls such as N47α as a negative control and S116D-C8 together with recombinant HPPD were included.

B1: S116C-C18 (nucleic acid)
DNA: GGGAGAGGAGGGAGAUAGAUAUCAAUAUCGCCACGUUACGAGUACCAAGCUUUAUUUCCGCAGCCCGAUAGAGUUUGUCCUCACGGUGGAUGG
modifications: chemistry not given here
Recombinant HPPD
  pull down of HPPD (protein band on SDS-PAGE): could be used to pull down HPPD
[1]
  Kd: 832 ± 39 nM

B2: S115A-C1: monoclonal RNA aptamer binding HPPD from classical SELEX run S115A, SEQ. ID. No. 2 (nucleic acid)
chain: GGGAGAGGAGGGAGAUAGAUAUCAACAAUGACUAGCCGUGUAAGUGGUCUCGUACAUCCGAAAAAGACGACCCAGUUUGUCCUCACGGUGGAUGG
modifications: listed as RNA, chemistry not given here
[1]
  Kd: 128 ± 11 nM
Control proteins
  binding to / retention by control proteins: not by any of the control proteins

B3: S116D-C8: monoclonal RNA aptamer, specific ligand to HPPD from competitive SELEX S116D, SEQ. ID. No. 5 (nucleic acid)
chain: GGGAGAGGAGGGAGAUAGAUAUCAAUAAAGUCGGUGACACCACGCAUCCAAAUACCGGUACGCGGAACUAAUAGUUUGUCCUCACGGUGGAUGG
modifications: RNA, backbone not given here
Recombinant HPPD
  pull down of HPPD (protein band on SDS-PAGE): could be used to pull down HPPD
Recombinant HPPD; different amounts of HPPD, in the presence of increasing amounts of PE
  pull down of recombinant HPPD (protein band on SDS-PAGE): could be used to purify conveniently detectable amounts of HPPD
Endogenous HPPD
  pull down of endogenous HPPD (protein band on SDS-PAGE): a protein band was visually detectable
[1]
  Kd: 120 ± 9 nM

B4: S116B-C4: monoclonal RNA aptamer, specific ligand to HPPD from competitive SELEX S116B, SEQ. ID. No. 4 (nucleic acid)
chain: GGGAGAGGAGGGAGAUAGAUAUCAAGUAACAAAUGAUACUUUCCAAGCAUAAUUCAUUCGCAGCCCGAAUUAAGUUUGUCCUCACGGUGGAUGG
modifications: RNA, backbone not given here
[1]
  Kd: 740 ± 39 nM
